Data reported in IntAct's records for PubMed 21637298.

How the values were obtained:
xrcc4_human XRCC4 [1] = target: xrcc4_human XRCC4 (UniProt Q13426)
xrcc4_human XRCC4 [2] = target: xrcc4_human XRCC4 (UniProt Q13426); remark: listed apart in the source

xrcc4_human XRCC4, sequence (Q13426 whole entry): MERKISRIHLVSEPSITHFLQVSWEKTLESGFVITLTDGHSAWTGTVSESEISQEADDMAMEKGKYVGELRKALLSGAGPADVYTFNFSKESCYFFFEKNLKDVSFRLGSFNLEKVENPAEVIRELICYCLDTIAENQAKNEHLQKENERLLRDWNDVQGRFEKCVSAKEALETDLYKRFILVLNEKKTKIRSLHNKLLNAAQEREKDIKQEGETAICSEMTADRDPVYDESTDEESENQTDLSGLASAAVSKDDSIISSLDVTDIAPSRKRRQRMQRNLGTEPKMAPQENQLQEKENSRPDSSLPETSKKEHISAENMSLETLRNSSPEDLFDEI

Substance	effect of a mutation on the interaction (xrcc4_human XRCC4 [1])	effect of a mutation on the interaction (xrcc4_human XRCC4 [2])
Bifunctional polynucleotide phosphatase/kinase (Homo sapiens), Q96T60 S114A	decreasing interaction	
Bifunctional polynucleotide phosphatase/kinase (Homo sapiens), Q96T60 S126A		decreasing interaction
